Reference: patent publication US20260274955A1 (JANUX THERAPEUTICS, published 2026)

molecular target: T1, Anti-CD28 Fab (SEQ ID NOs: 202, 203); assay: phage binding ELISA, Fab on plate, CD28 as competitor
T1 construct: biotinylated and captured on neutravidin coated plates in the phage ELISA
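Wherever Anti-CD28 Fab signal in the presence of CD28 is given: coated wells pre-incubated with CD28 antigen or with blocking buffer only, then crude clonal phage supernatant added briefly, and retained phage read out via HRP-linked anti-M13 antibody.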
Procedure: (§1) After panning, phage infected bacteria were plated out and colonies picked into 96 well blocks. Clonal phage was then amplified and separated from bacterial cells via centrifugation.
(§2) Clonal phage were harvested as crude supernatants and screened via standard ELISAs. […] Prior to the addition of clonal phage, wells were incubated with blocking buffer and CD28 antigen or blocking buffer alone. Without washing or aspirating, clonal phage supernatants were then added to the wells and incubated for a short time. Wells were then washed followed by detection of bound phage using a horse radish conjugated anti-M13 antibody. Clonal phage of interest were then sent for sequence analysis.

T1 sequence (VH, as listed by the source, chain 1 of 2): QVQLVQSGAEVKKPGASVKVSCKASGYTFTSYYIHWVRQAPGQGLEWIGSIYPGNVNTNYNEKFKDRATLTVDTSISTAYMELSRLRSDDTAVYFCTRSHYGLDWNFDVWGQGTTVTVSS
T1 sequence (VL, as listed by the source, chain 2 of 2): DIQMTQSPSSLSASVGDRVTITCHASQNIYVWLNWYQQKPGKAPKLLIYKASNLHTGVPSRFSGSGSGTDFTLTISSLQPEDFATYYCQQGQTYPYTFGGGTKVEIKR

Point of comparison: TCSAGAHWTWPLCF [Phage-1044], “Anti-CD28 Fab signal in the presence of CD28” value 0.06. Against it:
- SCAAGAHYVWPFCF [Phage-1046] — higher, 0.08
- TCSAGFSYSWPACF [Phage-1000] — higher, 0.07
- TCSAGAHYEWPYCL [Phage-1007] — higher, 0.11
- RCAAGVMYDWPVCL [Phage-1043] — higher, 0.07
- LCRAGAMWPWPTCL [Phage-1005] — the same, 0.06
- TCSAGATWPWPICL [Phage-997] — higher, 0.08
- TCAAGAMWQWPVCL [Phage-1010] — the same, 0.06
- QCAAGASYPWPVCL [Phage-1008] — higher, 0.07
- LCKPGVPYQWPTCF [Phage-1009] — lower, 0.05
- TCSAGATYSWPQCL [Phage-1003] — higher, 0.07
- TCSAGAHFAWPMCF [Phage-1045] — higher, 0.07
- SCAAGAAYPWPACL [Phage-1013] — the same, 0.06
- TCAAGASYPWPACL [Phage-998] — higher, 0.09
- PCSAGATYAWLYCV [Phage-1011] — the same, 0.06
- TCTAGFSYNWPMCF [Phage-1001] — the same, 0.06
- TCSAGATYAWPACY [Phage-1002] — higher, 0.14
- TCSAGATYNWPWCF [Phage-1047] — lower, 0.05
- TCSAGATFHWPQCF [Phage-1006] — higher, 0.08
- SCAAVFSFPWSPCL [Phage-999] — higher, 0.08
- TCSAGAYYAWPVCL [Phage-1004] — higher, 0.08

molecular target: T1, Anti-CD28 Fab (SEQ ID NOs: 202, 203); assay: phage binding ELISA, Fab on plate;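 further: clonal phage supernatant ELISA, wells preincubated with CD28 antigen or blocking buffer only, then bound phage detected using HRP-linked anti-M13 antibody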
Procedure: as §1, §2

Point of comparison: PCSAGATYAWLYCV [Phage-1011], “Anti-CD28 Fab (SEQ ID NOs: 202, 203) signal” value 1.81. Against it:
- SCAAGAHYVWPFCF [Phage-1046] — lower, 1.68
- TCSAGFSYSWPACF [Phage-1000] — higher, 1.86
- TCSAGAHYEWPYCL [Phage-1007] — higher, 1.82
- TCSAGAHWTWPLCF [Phage-1044] — lower, 1.69
- RCAAGVMYDWPVCL [Phage-1043] — lower, 1.7
- LCRAGAMWPWPTCL [Phage-1005] — higher, 1.83
- TCSAGATWPWPICL [Phage-997] — higher, 1.89
- TCAAGAMWQWPVCL [Phage-1010] — the same, 1.81
- QCAAGASYPWPVCL [Phage-1008] — higher, 1.82
- LCKPGVPYQWPTCF [Phage-1009] — higher, 1.82
- TCSAGATYSWPQCL [Phage-1003] — higher, 1.84
- TCSAGAHFAWPMCF [Phage-1045] — lower, 1.69
- SCAAGAAYPWPACL [Phage-1013] — lower, 1.8
- TCAAGASYPWPACL [Phage-998] — higher, 1.89
- TCTAGFSYNWPMCF [Phage-1001] — higher, 1.85
- TCSAGATYAWPACY [Phage-1002] — higher, 1.84
- TCSAGATYNWPWCF [Phage-1047] — lower, 1.68
- TCSAGATFHWPQCF [Phage-1006] — higher, 1.83
- SCAAVFSFPWSPCL [Phage-999] — higher, 1.87
- TCSAGAYYAWPVCL [Phage-1004] — higher, 1.84
